Test results published in article PMC6486548, “Structure, dynamics and roX2-lncRNA binding of tandem double-stranded RNA binding domains dsRBD1,2 of Drosophila helicase Maleless”.

Columns and labels:
[1] = target: T1, MLE dsRBD2 (UniProt P24785 155-257); assay: ITC; n=0.93; Filter binding: 20 mM HEPES/NaOH pH 8.0, 150 mM NaCl, 5 mM MgCl2, on ice; ITC: 10 mM HEPES pH 8.0, 75 mM NaCl, 2.5 mM MgCl2, 1 mM b-mercaptoethanol, 20 C; NMR:; settings: protein: recombinant; tags: N-terminal His6 removed by TEV; hairpin
[2] = target: T2, MLE dsRBD1,2 (UniProt P24785 1-257); assay: ITC; n=0.95; Filter binding: 20 mM HEPES/NaOH pH 8.0, 150 mM NaCl, 5 mM MgCl2, on ice; ITC: 10 mM HEPES pH 8.0, 75 mM NaCl, 2.5 mM MgCl2, 1 mM b-mercaptoethanol, 20 C; NMR:; settings: protein: recombinant; tags: N-terminal His6 removed by TEV; hairpin
[3] = target: T2, MLE dsRBD1,2; assay: filter binding; 5 mM Mg2+; Filter binding: 20 mM HEPES/NaOH pH 8.0, 150 mM NaCl, 5 mM MgCl2, on ice; ITC: 10 mM HEPES pH 8.0, 75 mM NaCl, 2.5 mM MgCl2, 1 mM b-mercaptoethanol, 20 C; NMR:; settings: protein: recombinant; tags: N-terminal His6 removed by TEV; hairpin
[4] = target: T1, MLE dsRBD2; assay: as above; settings: protein: recombinant; tags: N-terminal His6 removed by TEV; hairpin
[5] = target: MLE dsRBD1,2 linker deletion (UniProt P24785 1-257, del85-140); assay: filter binding; affinity similar to dsRBD1,2; Filter binding: 20 mM HEPES/NaOH pH 8.0, 150 mM NaCl, 5 mM MgCl2, on ice; ITC: 10 mM HEPES pH 8.0, 75 mM NaCl, 2.5 mM MgCl2, 1 mM b-mercaptoethanol, 20 C; NMR:; settings: protein: recombinant; tags: N-terminal His6 removed by TEV; hairpin
[6] = target: T2, MLE dsRBD1,2; assay: NMR titration; severe line broadening; Filter binding: 20 mM HEPES/NaOH pH 8.0, 150 mM NaCl, 5 mM MgCl2, on ice; ITC: 10 mM HEPES pH 8.0, 75 mM NaCl, 2.5 mM MgCl2, 1 mM b-mercaptoethanol, 20 C; NMR:; settings: protein: recombinant, tags: N-terminal His6 removed by TEV
[7] = target: T1, MLE dsRBD2; assay: ITC; n=0.70; Filter binding: 20 mM HEPES/NaOH pH 8.0, 150 mM NaCl, 5 mM MgCl2, on ice; ITC: 10 mM HEPES pH 8.0, 75 mM NaCl, 2.5 mM MgCl2, 1 mM b-mercaptoethanol, 20 C; NMR:; settings: protein: recombinant; tags: N-terminal His6 removed by TEV; blunt, internal A-C mismatch and G-U pairs
[8] = target: T2, MLE dsRBD1,2; assay: ITC; n=0.84; Filter binding: 20 mM HEPES/NaOH pH 8.0, 150 mM NaCl, 5 mM MgCl2, on ice; ITC: 10 mM HEPES pH 8.0, 75 mM NaCl, 2.5 mM MgCl2, 1 mM b-mercaptoethanol, 20 C; NMR:; settings: protein: recombinant; tags: N-terminal His6 removed by TEV; blunt, internal A-C mismatch and G-U pairs
[9] = target: MLE dsRBD1 (UniProt P24785 1-84); assay: NMR titration; Filter binding: 20 mM HEPES/NaOH pH 8.0, 150 mM NaCl, 5 mM MgCl2, on ice; ITC: 10 mM HEPES pH 8.0, 75 mM NaCl, 2.5 mM MgCl2, 1 mM b-mercaptoethanol, 20 C; NMR:; settings: protein: recombinant; tags: N-terminal His6 removed by TEV; blunt, internal A-C mismatch and G-U pairs
[10] = target: T1, MLE dsRBD2; assay: as above; settings: protein: recombinant; tags: N-terminal His6 removed by TEV; blunt, internal A-C mismatch and G-U pairs
[11] = target: MLE dsRBD1 K53+54E (UniProt P24785 1-84, K53E;K54E); assay: NMR titration; 1.3x RNA; Filter binding: 20 mM HEPES/NaOH pH 8.0, 150 mM NaCl, 5 mM MgCl2, on ice; ITC: 10 mM HEPES pH 8.0, 75 mM NaCl, 2.5 mM MgCl2, 1 mM b-mercaptoethanol, 20 C; NMR:; settings: protein: recombinant; tags: N-terminal His6 removed by TEV; blunt, internal A-C mismatch and G-U pairs
[12] = target: MLE dsRBD1 K53E (UniProt P24785 1-84, K53E); assay: as above; settings: protein: recombinant; tags: N-terminal His6 removed by TEV; blunt, internal A-C mismatch and G-U pairs
[13] = target: MLE dsRBD1 K54E (UniProt P24785 1-84, K54E); assay: as above; settings: protein: recombinant; tags: N-terminal His6 removed by TEV; blunt, internal A-C mismatch and G-U pairs

Q: With GUGUAAAAUGUUGCAAUAUAUAGUAACGUUUUACGC (structured_RNA) [SL7 14merLoop] as the binder, how does the Kd [1] read?
A: 5.92 ± 1.31 µM

Q: And the Kd [2]?
A: 4.66 ± 0.71 µM

Q: What about the Kd [3] of the same binder?
A: 6.8 µM

Q: What about the Kd [4] of the same binder?
A: ~22 µM

Q: Does GUGUAAAAUGUUGCAAUAUAUAGUAACGUUUUACGC (structured_RNA) [SL7 14merLoop] bind [5]?
A: binds

B1: UR23mer (dsRNA)
RNA 1: UAAAGUGCUUAUAGUGCAGGUAG
RNA 2: ACCUGCACUAUAAGCACUUUAAG
Q: Does B1 bind ([6]; 3' overhangs 2 nt on both ends)?
A: binds

B2: SL7 23mer duplex (dsRNA)
RNA 1: UUAAAAGACGUGUAAAAUGUUGC
RNA 2: GUAACGUUUUACGCGCCUUUUCC
Q: Does B2 bind ([6]; 23 + 23 nt, terminal U-C mismatches, internal A-C mismatch)?
A: binds

B3: SL7 18mer duplex (dsRNA)
RNA 1: AGACGUGUAAAAUGUUGC
RNA 2: GUAACGUUUUACGCGCCU
Q: B3 was tested. Which Kd [7] did it give?
A: 2.71 ± 0.19 µM

Q: What about the Kd [8] of the same binder?
A: 3.18 ± 0.48 µM

Q: And the Kd [9]?
A: ~470 µM

Q: What about the Kd [10] of the same binder?
A: ~33 µM

Q: Does B3 bind [11]?
A: no binding

Q: Does B3 bind [12]?
A: no binding

Q: Does B3 bind [13]?
A: no binding
